Source: patent publication US10800847

Experiments:
[1] = target: HLA-A*2902 (A29) single antigen on beads (human); test: Luminex iBeads (#6), IVIg 1:8
[2] = target: HLA-A*3001 (A30) single antigen on beads (human); test: Luminex iBeads (#6), IVIg 1:8
[3] = target: HLA-A*3002 (A30) single antigen on beads (human); test: Luminex iBeads (#6), IVIg 1:8
[4] = target: HLA-A*3101 (A31) single antigen on beads (human); test: Luminex iBeads (#6), IVIg 1:8
[5] = target: HLA-A*3201 (A32) single antigen on beads (human); test: Luminex iBeads (#6), IVIg 1:8
[6] = target: HLA-A*3301 (A33) single antigen on beads (human); test: Luminex iBeads (#6), IVIg 1:8
[7] = target: HLA-A*3303 (A33) single antigen on beads (human); test: Luminex iBeads (#6), IVIg 1:8
[8] = target: HLA-A*3401 (A34) single antigen on beads (human); test: Luminex iBeads (#6), IVIg 1:8
[9] = target: HLA-A*3402 (A34) single antigen on beads (human); test: Luminex iBeads (#6), IVIg 1:8
[10] = target: HLA-A*3601 (A36) single antigen on beads (human); test: Luminex iBeads (#6), IVIg 1:8
[11] = target: HLA-A*4301 (A43) single antigen on beads (human); test: Luminex iBeads (#6), IVIg 1:8
[12] = target: HLA-A*6601 (A66) single antigen on beads (human); test: Luminex iBeads (#6), IVIg 1:8
[13] = target: HLA-A*6602 (A66) single antigen on beads (human); test: Luminex iBeads (#6), IVIg 1:8
[14] = target: HLA-A*6801 (A68) single antigen on beads (human); test: Luminex iBeads (#6), IVIg 1:8
HLA-B*8201 (B82) (human) = test: Luminex, iBead vs regular bead MFI, 1:8
[15] = target: HLA-Cw*0102 (Cw1) (human); test: Luminex, iBead vs regular bead MFI, 1:8
[16] = target: HLA-Cw*0801 (Cw8) (human); test: Luminex, iBead vs regular bead MFI, 1:8
[17] = target: HLA-A*2902 (A29) single antigen on beads (human); test: Luminex, iBead vs regular bead, IVIg 1:8
[18] = target: HLA-A*3001 (A30) single antigen on beads (human); test: Luminex, iBead vs regular bead, IVIg 1:8
[19] = target: HLA-A*3101 (A31) single antigen on beads (human); test: Luminex, iBead vs regular bead, IVIg 1:8
[20] = target: HLA-A*3301 (A33) single antigen on beads (human); test: Luminex, iBead vs regular bead, IVIg 1:8
[21] = target: HLA-A*3303 (A33) single antigen on beads (human); test: Luminex, iBead vs regular bead, IVIg 1:8
[22] = target: HLA-A*3401 (A34) single antigen on beads (human); test: Luminex, iBead vs regular bead, IVIg 1:8
[23] = target: HLA-A*3402 (A34) single antigen on beads (human); test: Luminex, iBead vs regular bead, IVIg 1:8
[24] = target: HLA-A*3601 (A36) single antigen on beads (human); test: Luminex, iBead vs regular bead, IVIg 1:8
[25] = target: HLA-A*6601 (A66) single antigen on beads (human); test: Luminex, iBead vs regular bead, IVIg 1:8
[26] = target: HLA-A*6801 (A68) single antigen on beads (human); test: Luminex, iBead vs regular bead, IVIg 1:8
HLA-B*0702 (B7) (human) = test: iBead MFI against regular-bead MFI, IVIg diluted 1:8
HLA-B*1401 (B64) (human) = test: as above
HLA-B*1402 (B65) (human) = test: as above
HLA-B*1503 (B72) (human) = test: as above
HLA-B*1510 (B71) (human) = test: as above
HLA-B*1511 (B75) (human) = test: as above
HLA-B*1512 (B76) (human) = test: as above
HLA-B*1513 (B77) (human) = test: as above
HLA-B*1801 (B18) (human) = test: as above
[27] = target: Serum albumin on negative control beads (HSA/BSA) (human or bovine); test: as above
HLA-B*1301 (B13) (human) = test: as above
HLA-B*1302 (B13) (human) = test: as above
[28] = target: HLA-A*6802 (A68) single antigen on Luminex beads (human); test: Luminex single antigen bead assay, iBeads (#6), IVIg 1:8
[29] = target: HLA-A*6901 (A69) single antigen on Luminex beads (human); test: as above
[30] = target: HLA-A*8001 (A80) single antigen on Luminex beads (human); test: as above
[31] = target: HLA-A*6901 (A69) single antigen on Luminex beads (human); test: Luminex single antigen bead assay, iBeads vs regular beads, IVIg 1:8
[32] = target: HLA-A*8001 (A80) single antigen on Luminex beads (human); test: as above

IVIg GamaSTAN S/D (Talecris Biotherapeutics, USA) (antibody)
MFI [1]: 4430 MFI
MFI [2]: 624 MFI
MFI [3]: 929 MFI
MFI [4]: 351 MFI
MFI [5]: 1820 MFI
MFI [6]: 1880 MFI
MFI [7]: 725 MFI
MFI [8]: 4320 MFI
MFI [9]: 1210 MFI
MFI [10]: 1380 MFI
MFI [11]: 4180 MFI
MFI [12]: 2610 MFI
MFI [13]: 4320 MFI
MFI [14]: 634 MFI
Difference % (HLA-B*8201 (B82) (human)): 10%
Difference % [15]: -38%
Difference % [16]: -32%
Difference % (iBead MFI vs regular bead MFI) [17]: 348%
Difference % (iBead MFI vs regular bead MFI) [18]: -32%
Difference % (iBead MFI vs regular bead MFI) [19]: 189%
Difference % (iBead MFI vs regular bead MFI) [20]: 68%
Difference % (iBead MFI vs regular bead MFI) [21]: 125%
Difference % (iBead MFI vs regular bead MFI) [22]: 42%
Difference % (iBead MFI vs regular bead MFI) [23]: 76%
Difference % (iBead MFI vs regular bead MFI) [24]: 145%
Difference % (iBead MFI vs regular bead MFI) [25]: 86%
Difference % (iBead MFI vs regular bead MFI) [26]: 230%
Difference % (iBead vs regular bead) (HLA-B*0702 (B7) (human)): -10%
Difference % (iBead vs regular bead) (HLA-B*1401 (B64) (human)): -85%
Difference % (iBead vs regular bead) (HLA-B*1402 (B65) (human)): -100%
Difference % (iBead vs regular bead) (HLA-B*1503 (B72) (human)): -100%
Difference % (iBead vs regular bead) (HLA-B*1510 (B71) (human)): -43%
Difference % (iBead vs regular bead) (HLA-B*1511 (B75) (human)): -16%
Difference % (iBead vs regular bead) (HLA-B*1512 (B76) (human)): 125%
Difference % (iBead vs regular bead) (HLA-B*1513 (B77) (human)): -27%
Difference % (iBead vs regular bead) (HLA-B*1801 (B18) (human)): 0%
Difference % (iBead vs regular bead) [27]: 33%

IVIg Gamunex-C Lot NKLG1 (antibody)
MFI [1]: 6010 MFI
MFI [2]: 4470 MFI
MFI [4]: 3410 MFI
MFI [5]: 3760 MFI
MFI [6]: 4460 MFI
MFI [7]: 3330 MFI
MFI [10]: 3950 MFI
MFI [14]: 3150 MFI
Difference % (HLA-B*8201 (B82) (human)): -55%
Difference % [15]: -2%
Difference % [16]: -40%
Difference % (iBead MFI vs regular bead MFI) [17]: 243%
Difference % (iBead MFI vs regular bead MFI) [18]: 112%
Difference % (iBead MFI vs regular bead MFI) [19]: 1960%
Difference % (iBead MFI vs regular bead MFI) [20]: 163%
Difference % (iBead MFI vs regular bead MFI) [21]: 599%
Difference % (iBead MFI vs regular bead MFI) [22]: 47%
Difference % (iBead MFI vs regular bead MFI) [25]: 722%
Difference % (iBead vs regular bead) (HLA-B*0702 (B7) (human)): 39%
Difference % (iBead vs regular bead) (HLA-B*1301 (B13) (human)): -31%
Difference % (iBead vs regular bead) (HLA-B*1302 (B13) (human)): -45%
Difference % (iBead vs regular bead) (HLA-B*1401 (B64) (human)): -33%
Difference % (iBead vs regular bead) (HLA-B*1503 (B72) (human)): -79%
Difference % (iBead vs regular bead) (HLA-B*1510 (B71) (human)): 1%
Difference % (iBead vs regular bead) (HLA-B*1511 (B75) (human)): -17%
Difference % (iBead vs regular bead) (HLA-B*1512 (B76) (human)): 244%
Difference % (iBead vs regular bead) (HLA-B*1513 (B77) (human)): -45%
Difference % (iBead vs regular bead) (HLA-B*1801 (B18) (human)): 112%
MFI [28]: 4660 MFI
MFI [29]: 6240 MFI
MFI [30]: 3970 MFI
Difference % (iBead MFI against regular bead MFI) [31]: 122%
Difference % (iBead MFI against regular bead MFI) [32]: 24%

IVIg Gamunex-C Lot NKLK1 (antibody)
MFI [1]: 2890 MFI
MFI [2]: 1340 MFI
MFI [3]: 1410 MFI
MFI [4]: 0 MFI
MFI [5]: 915 MFI
MFI [7]: 517 MFI
MFI [8]: 3420 MFI
MFI [9]: 0 MFI
MFI [10]: 1550 MFI
MFI [11]: 2720 MFI
MFI [12]: 2330 MFI
MFI [13]: 1860 MFI
Difference % (HLA-B*8201 (B82) (human)): -104%
Difference % [15]: -75%
Difference % [16]: -90%
Difference % (iBead MFI vs regular bead MFI) [17]: 253%
Difference % (iBead MFI vs regular bead MFI) [18]: 9%
Difference % (iBead MFI vs regular bead MFI) [19]: 0%
Difference % (iBead MFI vs regular bead MFI) [20]: 42%
Difference % (iBead MFI vs regular bead MFI) [21]: 189%
Difference % (iBead MFI vs regular bead MFI) [22]: 59%
Difference % (iBead MFI vs regular bead MFI) [23]: 0%
Difference % (iBead MFI vs regular bead MFI) [24]: 120%
Difference % (iBead MFI vs regular bead MFI) [25]: 166%
Difference % (iBead MFI vs regular bead MFI) [26]: 0%
Difference % (iBead vs regular bead) (HLA-B*0702 (B7) (human)): -100%
Difference % (iBead vs regular bead) (HLA-B*1301 (B13) (human)): -71%
Difference % (iBead vs regular bead) (HLA-B*1302 (B13) (human)): -100%
Difference % (iBead vs regular bead) (HLA-B*1401 (B64) (human)): -82%
Difference % (iBead vs regular bead) (HLA-B*1402 (B65) (human)): -100%
Difference % (iBead vs regular bead) (HLA-B*1503 (B72) (human)): -100%
Difference % (iBead vs regular bead) (HLA-B*1510 (B71) (human)): -79%
Difference % (iBead vs regular bead) (HLA-B*1511 (B75) (human)): -51%
Difference % (iBead vs regular bead) (HLA-B*1512 (B76) (human)): 51%
Difference % (iBead vs regular bead) (HLA-B*1801 (B18) (human)): -100%
Difference % (iBead vs regular bead) [27]: -24%
MFI [28]: 1950 MFI
MFI [29]: 2880 MFI
MFI [30]: 1190 MFI
Difference % (iBead MFI against regular bead MFI) [31]: 4%
Difference % (iBead MFI against regular bead MFI) [32]: -29%

IVIg Octagam (Octapharma, Lachen, Switzerland) (antibody)
MFI [1]: 2270 MFI
MFI [2]: 510 MFI
MFI [3]: 369 MFI
MFI [4]: 0 MFI
MFI [5]: 518 MFI
MFI [6]: 1360 MFI
MFI [7]: 152 MFI
MFI [8]: 2060 MFI
MFI [9]: 0 MFI
MFI [10]: 572 MFI
MFI [11]: 1690 MFI
MFI [12]: 1020 MFI
MFI [13]: 684 MFI
MFI [14]: 0 MFI
Difference % (HLA-B*8201 (B82) (human)): -90%
Difference % [15]: -77%
Difference % [16]: -85%
Difference % (iBead MFI vs regular bead MFI) [17]: 44%
Difference % (iBead MFI vs regular bead MFI) [18]: -45%
Difference % (iBead MFI vs regular bead MFI) [19]: -100%
Difference % (iBead MFI vs regular bead MFI) [20]: -9%
Difference % (iBead MFI vs regular bead MFI) [23]: 0%
Difference % (iBead MFI vs regular bead MFI) [24]: -26%
Difference % (iBead MFI vs regular bead MFI) [25]: -40%
Difference % (iBead MFI vs regular bead MFI) [26]: 0%
Difference % (iBead vs regular bead) (HLA-B*0702 (B7) (human)): -100%
Difference % (iBead vs regular bead) (HLA-B*1301 (B13) (human)): -99%
Difference % (iBead vs regular bead) (HLA-B*1302 (B13) (human)): -100%
Difference % (iBead vs regular bead) (HLA-B*1401 (B64) (human)): -96%
Difference % (iBead vs regular bead) (HLA-B*1402 (B65) (human)): -100%
Difference % (iBead vs regular bead) (HLA-B*1503 (B72) (human)): -100%
Difference % (iBead vs regular bead) (HLA-B*1510 (B71) (human)): -100%
Difference % (iBead vs regular bead) (HLA-B*1511 (B75) (human)): -70%
Difference % (iBead vs regular bead) (HLA-B*1512 (B76) (human)): 23%
Difference % (iBead vs regular bead) (HLA-B*1513 (B77) (human)): -89%
Difference % (iBead vs regular bead) (HLA-B*1801 (B18) (human)): -100%
Difference % (iBead vs regular bead) [27]: -29%
MFI [28]: 489 MFI
MFI [29]: 814 MFI
MFI [30]: 845 MFI
Difference % (iBead MFI against regular bead MFI) [31]: -53%
Difference % (iBead MFI against regular bead MFI) [32]: -63%
